Reference: paper PMC4091690, “A Broadly Conserved G-Protein-Coupled Receptor Kinase Phosphorylation Mechanism Controls Drosophila Smoothened Activity” (PLoS Genetics, 2014)

B1: Smo^core (Drosophila Smoothened amino acids 1-663), C-terminally tagged with GFP10 S634 [Drosophila] / Costal-2 (Cos2), C-terminally tagged with Renilla luciferase II … (parent)
chain 1: MEIPIQVAVRIFPHRELKDLLRSFGPTEPKKDAQAVDEGADSKDSEAQVPAAEKDNPSISETDPNGNAEQDSAADSKTIPDANGNDSGQKDYPDSAYCVQAIPISASALGLPSALPGGDPMDSIAAGLIQVGPHTVPVTHALPSSSSQEQVYHQTVFPLITLFLEGFDASVVTYGQRGQGKSYTLYGNVQDPTLTDSTEGVVQLCVRDIFSHISLHPERTYAINVGFVEICGGDVCDLLGMGNIHCTNVDAVFHWLQVGLSARQSLPAHTLFTLTLEQQWVSKEGLLQHRLSTASFSDLCGTERCGDQPPGRPLDAGLCMLEQVISTLTDPGLMYGVNGNIPYGQTTLTTLLKDSFGGRAQTLVILCVSPLEEHLPETLGNLQFAFKVQCVRNFVIMNTYSDDNTMIVQPAEPVPESNSSAGPLSQAGPGDNFGLQFAASQWSKLVTNAEGLFSKLIDSKLITEVEKEQIEEWLFLKQECEECLSSTEAMRQQKQLVPILEAEEPEDVNSEAANSESPNSDNENDTDNESHRPDLDDKIESLMEEFRDKTDALILEKHAEYLSKHPKAVMQSQDREIEAQPPEENGDDRKVSIGSRRRSVQPGASLSTAELAMLNRVASQQPPPPIDPESVVDPLESSSGEGIRQAALAAAAATAPIEQLQKKLRKLVAEIEGKQRQLREIEETIQVKQNIIAELVKNSDTRSHAKQRFHKKRAKLEAECDKAKKQLGKALVQGRDQSEIERWTTIIGHLERRLEDLSSMKHIAGESGQKVKKLQQSVGESRKQADDLQKKLRKECKLRCQMEAELAKLRESRETGKELVKAQGSPEQQGRQLKAVQARITHLNHILREKSDNLEEQPGPEQQETLRHEIRNLRGTRDLLLEERCHLDRKLKRDKVLTQKEERKLLECDEAIEAIDAAIEFKNEMITGHRSIDTSDRIQREKGEQMLMARLNRLSTEEMRTLLYKYFTKVIDLRDSSRKLELQLVQLERERDAWEWKERVLSNAVRQARLEGERNAVLLQRQHEMKLTLMLRHMAEETSASSASYGERALAPACVAPPVQASSDFDYDHFYKGGGNPSKALIKAPKPMPTGSALDKYKDKEQRSGRNIFAKFHVLTRYASAAAAGSSGSTAEESTALIESTTTATATTTSTTTTGAVGKVKDKALVSFRPEQLKRLMPAPTATKVTRQKNKIIIQDASRRN
chain 2: SSAKFGSTTPASAQQSDVELEPINGTLNYRLYAKKGRDDKPWFDGLDSRHIQCVRRARCYPTSNATNTCFGSKLPYELSSLDLTDFHTEKELNDKLNDYYALKHVPKCWAAIQPFLCAVFKPKCEKINGEDMVYLPSYEMCRITMEPCRILYNTTFFPKFLRCNETLFPTKCTNGARGMKFNGTGQCLSPLVPTDTSASYYPGIEGCGVRCKDPLYTDDEHRQIHKLIGWAGSICLLSNLFVVSTFFIDWKNANKYPAVIVFYINLCFLIACVGWLLQFTSGSREDIVCRKDGTLRHSEPTAGENLSCIVIFVLVYYFLTAGMVWFVFLTYAWHWRAMGHVQDRIDKKGSYFHLVAWSLPLVLTITTMAFSEVDGNSIVGICFVGYINHSMRAGLLLGPLCGVILIGGYFITRGMVMLFGLKHFANDIKSTSASNKIHLIIMRMGVCALLTLVFILVAIACHVTEFRHADEWAQSFRQFIICKISSVFEEKSSCRIENRPSVGVLQLHLLCLFSSGIVMSTWCWTPSSIETWKRYIRKKCGKEVVEEVKMPKHKVIAQTWAKRKDFEDKGRLSITLYNTHTDPVGLNFDVNDLNSSETNDISSTWAAYLPQCVKRRMALTGAATGNSSSHGP

Variants of: B1
Assay: BRET
Conditions: with Costal-2 (Cos2), S2 cells treated with smo 3′UTR dsRNA to deplete endogenous Smo, parent: 100, read off a plot

| Variant | response |
| --- | --- |
| chain 2 S573A T575A T579A T581A S595A S596A T598A S602A S603A T604A T620A T624A S627A S628A S629A | 30 |
